For this assay, the target named is mouse importin α1 lacking the N-terminal importin-β-binding domain (ΔIBB-importin α1) (mouse). Description: ITC.

A word on the Kd: it is the constant that tells how readily two partners part at equilibrium. A high value points to weaker binding. In turn, influenza NLS2-K peptide (198-[…]-216) yielded a dissociation constant (Kd) of 72.4 µM.

The values are drawn from PMC5595889.
